The MegaScale stability set (Tsuboyama et al. 2023)

B1: EHEE_rd4_0726 (parent)
chain: DIEITTNGEEDAKRVIKELQKRNLEYHIEVHGNQWVIKVR

Variants of: B1
Assay: folding stability dG (cDNA display proteolysis); higher = more stable
Conditions: PBS, room temperature

Variant | folding stability dG [kcal/mol]
DIEITTNGEEDAKRVIKEKQKRNLEYHIEVHGNQWVIKVR [L19K] | -0.438
DIEITTNGEEDAKRVIKEFQKRNLEYHIEVHGNQWVIKVR [L19F] | 1.38
DIEITTNGEEDAKRVIKEHQKRNLEYHIEVHGNQWVIKVR [L19H] | -0.603
DIEITTNGEEDAKRVIKEAQKRNLEYHIEVHGNQWVIKVR [L19A] | 0.721
DIEITTNGEEDAKRVIKECQKRNLEYHIEVHGNQWVIKVR [L19C] | 1.59
DIEITTNGEEDAKRVIKEVQKRNLEYHIEVHGNQWVIKVR [L19V] | 0.98
DIEITTNGEEDAKRVIKETQKRNLEYHIEVHGNQWVIKVR [L19T] | -0.334
DIEITTNGEEDAKRVIKEIQKRNLEYHIEVHGNQWVIKVR [L19I] | 1.56
DIEITTNGEEDAKRVIKEMQKRNLEYHIEVHGNQWVIKVR [L19M] | 1.32
DIEITTNGEEDAKRVIKEWQKRNLEYHIEVHGNQWVIKVR [L19W] | 0.45
DIEITTNGEEDAKRVIKEYQKRNLEYHIEVHGNQWVIKVR [L19Y] | 0.81
DIEITTNGEEDAKRVYKELQKRNLEYHIEVHGNQWVIKVR [I16Y] | 0.637
DIEITTNGEEDAKRVAKELQKRNLEYHIEVHGNQWVIKVR [I16A] | 1.54
DIEITTNGEEDAKRVQKELQKRNLEYHIEVHGNQWVIKVR [I16Q] | 0.929
DIEITTNGEEDAKRVSKELQKRNLEYHIEVHGNQWVIKVR [I16S] | 0.705
DIEITTNGEEDAKRVNKELQKRNLEYHIEVHGNQWVIKVR [I16N] | -0.729
DIEITTNGEEDAKRVMKELQKRNLEYHIEVHGNQWVIKVR [I16M] | 2.04
DIEITTNGEEDAKRVFKELQKRNLEYHIEVHGNQWVIKVR [I16F] | 1.02
DIEITTNGEEDAKRVRKELQKRNLEYHIEVHGNQWVIKVR [I16R] | 0.31
DIEITTNGEEDAKRVGKELQKRNLEYHIEVHGNQWVIKVR [I16G] | 0.895
DIEITTNGEEDAKRVVKELQKRNLEYHIEVHGNQWVIKVR [I16V] | 1.94
DIEITTNGEEDAKRVEKELQKRNLEYHIEVHGNQWVIKVR [I16E] | 1.34
DIEITTNGEEDAKRVLKELQKRNLEYHIEVHGNQWVIKVR [I16L] | 1.83
DIEITTNGEEDAKRVHKELQKRNLEYHIEVHGNQWVIKVR [I16H] | -0.379
DIEITTNGEEDAKRVKKELQKRNLEYHIEVHGNQWVIKVR [I16K] | 0.043

Variant | folding stability dG [kcal/mol]
DIEITTNGEEDAKRVTKELQKRNLEYHIEVHGNQWVIKVR [I16T] | 1.25
DIEITTNGEEDAKRVWKELQKRNLEYHIEVHGNQWVIKVR [I16W] | 0.844
DIEITTNGEEDAKRWIKELQKRNLEYHIEVHGNQWVIKVR [V15W] | 2.41
DIEITTNGEEDAKRAIKELQKRNLEYHIEVHGNQWVIKVR [V15A] | 1.38
DIEITTNGEEDAKRSIKELQKRNLEYHIEVHGNQWVIKVR [V15S] | 0.278
DIEITTNGEEDAKRRIKELQKRNLEYHIEVHGNQWVIKVR [V15R] | 0.981
DIEITTNGEEDAKRFIKELQKRNLEYHIEVHGNQWVIKVR [V15F] | 1.97
DIEITTNGEEDAKRQIKELQKRNLEYHIEVHGNQWVIKVR [V15Q] | 0.871
DIEITTNGEEDAKREIKELQKRNLEYHIEVHGNQWVIKVR [V15E] | 0.404
DIEITTNGEEDAKRIIKELQKRNLEYHIEVHGNQWVIKVR [V15I] | 2.91
DIEITTNGEEDAKRTIKELQKRNLEYHIEVHGNQWVIKVR [V15T] | 1.27
DIEITTNGEEDAKRYIKELQKRNLEYHIEVHGNQWVIKVR [V15Y] | 1.99
DIEITTNGEEDAKRPIKELQKRNLEYHIEVHGNQWVIKVR [V15P] | -0.481
DIEITTNGEEDAKRGIKELQKRNLEYHIEVHGNQWVIKVR [V15G] | -0.213
DIEITTNGEEDAKRNIKELQKRNLEYHIEVHGNQWVIKVR [V15N] | 0.1
DIEITTNGEEDAKRKIKELQKRNLEYHIEVHGNQWVIKVR [V15K] | 1.2
DIEITTNGEEDAKRCIKELQKRNLEYHIEVHGNQWVIKVR [V15C] | 2.29
DIEITTNGEEDAKRLIKELQKRNLEYHIEVHGNQWVIKVR [V15L] | 2.2
DIEITTNGEEDAKRHIKELQKRNLEYHIEVHGNQWVIKVR [V15H] | 1.23
DIEITTNGEEDAKRMIKELQKRNLEYHIEVHGNQWVIKVR [V15M] | 1.79
DIEITTNGEEDAKRVIYELQKRNLEYHIEVHGNQWVIKVR [K17Y] | 2.43
DIEITTNGEEDAKRVIAELQKRNLEYHIEVHGNQWVIKVR [K17A] | 2.74
DIEITTNGEEDAKRVIHELQKRNLEYHIEVHGNQWVIKVR [K17H] | 2.26
DIEITTNGEEDAKRVIEELQKRNLEYHIEVHGNQWVIKVR [K17E] | 2.49
DIEITTNGEEDAKRVIIELQKRNLEYHIEVHGNQWVIKVR [K17I] | 2.46

Variant | folding stability dG [kcal/mol]
DIEITTNGEEDAKRVIPELQKRNLEYHIEVHGNQWVIKVR [K17P] | 0.05
DIEITTNGEEDAKRVIVELQKRNLEYHIEVHGNQWVIKVR [K17V] | 2.29
DIEITTNGEEDAKRVIDELQKRNLEYHIEVHGNQWVIKVR [K17D] | 2.06
DIEITTNGEEDAKRVIRELQKRNLEYHIEVHGNQWVIKVR [K17R] | 2.7
DIEITTNGEEDAKRVIWELQKRNLEYHIEVHGNQWVIKVR [K17W] | 2.36
DIEITTNGEEDAKRVIGELQKRNLEYHIEVHGNQWVIKVR [K17G] | 1.97
DIEITTNGEEDAKRVIQELQKRNLEYHIEVHGNQWVIKVR [K17Q] | 2.46
DIEITTNGEEDAKRVITELQKRNLEYHIEVHGNQWVIKVR [K17T] | 2.15
DIEITTNGEEDAKRVISELQKRNLEYHIEVHGNQWVIKVR [K17S] | 2.31
DIEITTNGEEDAKRVILELQKRNLEYHIEVHGNQWVIKVR [K17L] | 2.74
DIEITTNGEEDAKRVINELQKRNLEYHIEVHGNQWVIKVR [K17N] | 2.05
DIEITTNGEEDAKRVIMELQKRNLEYHIEVHGNQWVIKVR [K17M] | 2.64
DIEITTNGEEDAKRVIFELQKRNLEYHIEVHGNQWVIKVR [K17F] | 2.5
DIEITTNGEEDAKRVIKELQQRNLEYHIEVHGNQWVIKVR [K21Q] | 2.23
DIEITTNGEEDAKRVIKELQYRNLEYHIEVHGNQWVIKVR [K21Y] | 2.08
DIEITTNGEEDAKRVIKELQHRNLEYHIEVHGNQWVIKVR [K21H] | 2.02
DIEITTNGEEDAKRVIKELQMRNLEYHIEVHGNQWVIKVR [K21M] | 2.51
DIEITTNGEEDAKRVIKELQPRNLEYHIEVHGNQWVIKVR [K21P] | 0.042
DIEITTNGEEDAKRVIKELQSRNLEYHIEVHGNQWVIKVR [K21S] | 2.3
DIEITTNGEEDAKRVIKELQARNLEYHIEVHGNQWVIKVR [K21A] | 2.54
DIEITTNGEEDAKRVIKELQTRNLEYHIEVHGNQWVIKVR [K21T] | 1.91
DIEITTNGEEDAKRVIKELQLRNLEYHIEVHGNQWVIKVR [K21L] | 2.65
DIEITTNGEEDAKRVIKELQRRNLEYHIEVHGNQWVIKVR [K21R] | 2.75
DIEITTNGEEDAKRVIKELQDRNLEYHIEVHGNQWVIKVR [K21D] | 2.3
DIEITTNGEEDAKRVIKELQVRNLEYHIEVHGNQWVIKVR [K21V] | 1.91

Variant | folding stability dG [kcal/mol]
DIEITTNGEEDAKRVIKELQWRNLEYHIEVHGNQWVIKVR [K21W] | 2.04
DIEITTNGEEDAKRVIKELQIRNLEYHIEVHGNQWVIKVR [K21I] | 2.19
DIEITTNGEEDAKRVIKELQERNLEYHIEVHGNQWVIKVR [K21E] | 2.44
DIEITTNGEEDAKRVIKELQNRNLEYHIEVHGNQWVIKVR [K21N] | 2.21
DIEITTNGEEDAKRVIKELQGRNLEYHIEVHGNQWVIKVR [K21G] | 1.86
DIEITTNGEEDAKRVIKELQFRNLEYHIEVHGNQWVIKVR [K21F] | 2.25
DIEITTNGEEDAKRVIKELQKCNLEYHIEVHGNQWVIKVR [R22C] | 2.62
DIEITTNGEEDAKRVIKELQKGNLEYHIEVHGNQWVIKVR [R22G] | 1.45
DIEITTNGEEDAKRVIKELQKANLEYHIEVHGNQWVIKVR [R22A] | 2.25
DIEITTNGEEDAKRVIKELQKENLEYHIEVHGNQWVIKVR [R22E] | 1.49
DIEITTNGEEDAKRVIKELQKDNLEYHIEVHGNQWVIKVR [R22D] | 1.33
DIEITTNGEEDAKRVIKELQKFNLEYHIEVHGNQWVIKVR [R22F] | 2.39
DIEITTNGEEDAKRVIKGLQKRNLEYHIEVHGNQWVIKVR [E18G] | 1.69
DIEITTNGEEDAKRVIKFLQKRNLEYHIEVHGNQWVIKVR [E18F] | 2.73
DIEITTNGEEDAKRVIKRLQKRNLEYHIEVHGNQWVIKVR [E18R] | 2.01
DIEITTNGEEDAKRVIKMLQKRNLEYHIEVHGNQWVIKVR [E18M] | 2.86
DIEITTNGEEDAKRVIKKLQKRNLEYHIEVHGNQWVIKVR [E18K] | 1.81
DIEITTNGEEDAKRVIKSLQKRNLEYHIEVHGNQWVIKVR [E18S] | 2.04
DIEITTNGEEDAKRVIKPLQKRNLEYHIEVHGNQWVIKVR [E18P] | -0.054
DIEITTNGEEDAKRVIKALQKRNLEYHIEVHGNQWVIKVR [E18A] | 2.43
DIEITTNGEEDAKRVIKQLQKRNLEYHIEVHGNQWVIKVR [E18Q] | 2.19
DIEITTNGEEDAKRVIKILQKRNLEYHIEVHGNQWVIKVR [E18I] | 2.68
DIEITTNGEEDAKRVIKTLQKRNLEYHIEVHGNQWVIKVR [E18T] | 1.95
DIEITTNGEEDAKRVIKYLQKRNLEYHIEVHGNQWVIKVR [E18Y] | 2.87
DIEITTNGEEDAKRVIKHLQKRNLEYHIEVHGNQWVIKVR [E18H] | 2.02

Variant | folding stability dG [kcal/mol]
DIEITTNGEEDAKRVIKWLQKRNLEYHIEVHGNQWVIKVR [E18W] | 3.42
DIEITTNGEEDAKRVIKCLQKRNLEYHIEVHGNQWVIKVR [E18C] | 3.47
DIEITTNGEEDAKRVIKLLQKRNLEYHIEVHGNQWVIKVR [E18L] | 2.65
DIEITTNGEEDAKRVIKVLQKRNLEYHIEVHGNQWVIKVR [E18V] | 2.32
DIEITTNGEEDAKRVIKDLQKRNLEYHIEVHGNQWVIKVR [E18D] | 1.84
DIEITTNGEEDAKRVIKNLQKRNLEYHIEVHGNQWVIKVR [E18N] | 1.86
DIEITTNGEEDAKRVIKELDKRNLEYHIEVHGNQWVIKVR [Q20D] | 2.29
DIEITTNGEEDAKRVIKELIKRNLEYHIEVHGNQWVIKVR [Q20I] | 2.77
DIEITTNGEEDAKRVIKELEKRNLEYHIEVHGNQWVIKVR [Q20E] | 2.68
DIEITTNGEEDAKRVIKELSKRNLEYHIEVHGNQWVIKVR [Q20S] | 1.9
DIEITTNGEEDAKRVIKELNKRNLEYHIEVHGNQWVIKVR [Q20N] | 2.22
DIEITTNGEEDAKRVIKELFKRNLEYHIEVHGNQWVIKVR [Q20F] | 1.68
DIEITTNGEEDAKRVIKELKKRNLEYHIEVHGNQWVIKVR [Q20K] | 2.49
DIEITTNGEEDAKRVIKELCKRNLEYHIEVHGNQWVIKVR [Q20C] | 1.98
DIEITTNGEEDAKRVIKELLKRNLEYHIEVHGNQWVIKVR [Q20L] | 2.39
DIEITTNGEEDAKRVIKELWKRNLEYHIEVHGNQWVIKVR [Q20W] | 1.79
DIEITTNGEEDAKRVIKELVKRNLEYHIEVHGNQWVIKVR [Q20V] | 2.4
DIEITTNGEEDAKRVIKELHKRNLEYHIEVHGNQWVIKVR [Q20H] | 1.85
DIEITTNGEEDAKRVIKELYKRNLEYHIEVHGNQWVIKVR [Q20Y] | 1.64
DIEITTNGEEDAKRVIKELTKRNLEYHIEVHGNQWVIKVR [Q20T] | 2.17
DIEITTNGEEDAKRVIKELPKRNLEYHIEVHGNQWVIKVR [Q20P] | -0.448
DIEITTNGEEDAKRVIKELRKRNLEYHIEVHGNQWVIKVR [Q20R] | 2.56
DIEITTNGEEDAKRVIKELMKRNLEYHIEVHGNQWVIKVR [Q20M] | 2.4
DIEITTNGEEDAKRVIKELAKRNLEYHIEVHGNQWVIKVR [Q20A] | 2.11
DIEITTNGEEDAKRVIKELGKRNLEYHIEVHGNQWVIKVR [Q20G] | 1.48
